Legend:
[1] = target: collagenase 3 (Homo sapiens, UniProt P45452); assay: Inhibition with type II collagen, FlSub3 cleavage; type: biochemical; settings: for Average Percent Inhibition from 1.1 to 6.6 Hours / Average Percent Inhibition: COL3(.013 nM)
Protocol: (§1) In a 96 well plate, collagenase 3 (0.013 nM), collagenase 1 (1.25 nM), stromelysin 1 (0.8 nM), gelatinase A (0.025 nM), or gelatinase B (0.008 nM) were reacted with 20 uM FlSub3 in standard assay buffer in the presence of varying concentrations of bovine type II collagen (0.18-44 ug/ml). The type II collagen, a 1 mg/ml stock in 0.5M acetic acid, was transferred into assay buffer by passing the material through a biospin P6 column from Amersham. The reaction was initiated by addition of substrate to enzyme containing either buffer or an appropriate amount of type II collagen. Data points were taken every 15 min over a period of 15 hours using an excitation and emission wavelength of 350 and 485 nm respectively. The usable data (1-6 hours), was taken and the percent inhibition by type II collagen was calculated for each enzyme and plotted as a function of inhibitor concentration and time in the assay. It should be noted that the percent inhibition varies with time as the bovine substrate is consumed during the reaction course.

[2] = target: gelatinase B (Homo sapiens, UniProt P14780); assay: Inhibition with type II collagen, FlSub3 cleavage; type: biochemical; settings: for Improvement In Selectivity (Gel-B v Col-3): 44 ug/ml Type II Collagen vs no Type II Collagen, FlSb3; for Average Percent Inhibition from 1.1 to 6.6 Hours / Average Percent Inhibition: GELB(.008 nM)
Protocol: as §1

[3] = TypeIICOL(1.6 ug/ul), FISb3, hour 0.10 to 1.10
[4] = TypeIICOL(1.6 ug/ul), FISb3, hour 1.10 to 2.10
[5] = TypeIICOL(1.6 ug/ul), FISb3, hour 1.10 to 6.60
[6] = TypeIICOL(1.6 ug/ul), FISb3, hour 2.10 to 3.10
[7] = TypeIICOL(1.6 ug/ul), FISb3, hour 3.10 to 4.10
[8] = TypeIICOL(1.6 ug/ul), FISb3, hour 4.10 to 5.10
[9] = TypeIICOL(1.6 ug/ul), FISb3, hour 5.10 to 6.10
[10] = TypeIICOL(4.9 ug/ul), FISb3, hour 0.10 to 1.10
[11] = TypeIICOL(4.9 ug/ul), FISb3, hour 1.10 to 2.10
[12] = TypeIICOL(4.9 ug/ul), FISb3, hour 1.10 to 6.60
[13] = TypeIICOL(4.9 ug/ul), FISb3, hour 2.10 to 3.10
[14] = TypeIICOL(4.9 ug/ul), FISb3, hour 3.10 to 4.10
[15] = TypeIICOL(4.9 ug/ul), FISb3, hour 4.10 to 5.10
[16] = TypeIICOL(4.9 ug/ul), FISb3, hour 5.10 to 6.10
[17] = TypeIICOL(15 ug/ul), FISb3, hour 0.10 to 1.10
[18] = TypeIICOL(15 ug/ul), FISb3, hour 1.10 to 2.10
[19] = TypeIICOL(15 ug/ul), FISb3, hour 1.10 to 6.60
[20] = TypeIICOL(15 ug/ul), FISb3, hour 2.10 to 3.10
[21] = TypeIICOL(15 ug/ul), FISb3, hour 3.10 to 4.10
[22] = TypeIICOL(15 ug/ul), FISb3, hour 4.10 to 5.10
[23] = TypeIICOL(15 ug/ul), FISb3, hour 5.10 to 6.10
[24] = TypeIICOL(44 ug/ul), FISb3, hour 0.10 to 1.10
[25] = TypeIICOL(44 ug/ul), FISb3, hour 1.10 to 2.10
[26] = TypeIICOL(44 ug/ul), FISb3, hour 1.10 to 6.60
[27] = TypeIICOL(44 ug/ul), FISb3, hour 2.10 to 3.10
[28] = TypeIICOL(44 ug/ul), FISb3, hour 3.10 to 4.10
[29] = TypeIICOL(44 ug/ul), FISb3, hour 4.10 to 5.10
[30] = TypeIICOL(44 ug/ul), FISb3, hour 5.10 to 6.10
[31] = TypeIICOL(.18 ug/ul), FISb3, hour 0.10 to 1.10
[32] = TypeIICOL(.18 ug/ul), FISb3, hour 1.10 to 2.10
[33] = TypeIICOL(.18 ug/ul), FISb3, hour 1.10 to 6.60
[34] = TypeIICOL(.18 ug/ul), FISb3, hour 2.10 to 3.10
[35] = TypeIICOL(.18 ug/ul), FISb3, hour 3.10 to 4.10
[36] = TypeIICOL(.18 ug/ul), FISb3, hour 4.10 to 5.10
[37] = TypeIICOL(.18 ug/ul), FISb3, hour 5.10 to 6.10
[38] = TypeIICOL(.55 ug/ul), FISb3, hour 0.10 to 1.10
[39] = TypeIICOL(.55 ug/ul), FISb3, hour 1.10 to 2.10
[40] = TypeIICOL(.55 ug/ul), FISb3, hour 1.10 to 6.60
[41] = TypeIICOL(.55 ug/ul), FISb3, hour 2.10 to 3.10
[42] = TypeIICOL(.55 ug/ul), FISb3, hour 3.10 to 4.10
[43] = TypeIICOL(.55 ug/ul), FISb3, hour 4.10 to 5.10
[44] = TypeIICOL(.55 ug/ul), FISb3, hour 5.10 to 6.10

Sequence of gelatinase B (P14780 94-707): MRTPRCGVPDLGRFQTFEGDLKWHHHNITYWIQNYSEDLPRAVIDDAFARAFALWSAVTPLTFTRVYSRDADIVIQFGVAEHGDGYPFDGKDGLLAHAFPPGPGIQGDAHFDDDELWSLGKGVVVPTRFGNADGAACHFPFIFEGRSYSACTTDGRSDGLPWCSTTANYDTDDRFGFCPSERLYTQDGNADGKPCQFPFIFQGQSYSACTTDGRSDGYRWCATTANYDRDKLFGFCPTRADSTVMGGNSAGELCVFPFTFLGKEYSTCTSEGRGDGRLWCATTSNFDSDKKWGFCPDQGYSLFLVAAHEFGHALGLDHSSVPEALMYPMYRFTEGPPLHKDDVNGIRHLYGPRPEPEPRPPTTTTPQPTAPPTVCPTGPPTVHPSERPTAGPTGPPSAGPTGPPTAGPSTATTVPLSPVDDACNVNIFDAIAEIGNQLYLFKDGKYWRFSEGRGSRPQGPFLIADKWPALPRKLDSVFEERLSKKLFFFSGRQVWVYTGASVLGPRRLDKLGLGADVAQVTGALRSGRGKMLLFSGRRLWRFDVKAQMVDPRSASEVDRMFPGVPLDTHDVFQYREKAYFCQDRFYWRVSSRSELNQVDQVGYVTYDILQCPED

Type II Collagen: bovine type II collagen, full length MMP substrate used as inhibitor of gelatinases
Average Percent Inhibition from 1.1 to 6.6 Hours ([1]; Type II Collagen 0.18 ug/ml): −8%
Average Percent Inhibition from 1.1 to 6.6 Hours ([1]; Type II Collagen 0.54 ug/ml): −11%
Average Percent Inhibition from 1.1 to 6.6 Hours ([1]; Type II Collagen 1.63 ug/ml): −11%
Average Percent Inhibition from 1.1 to 6.6 Hours ([1]; Type II Collagen 4.89 ug/ml): −28%
Average Percent Inhibition from 1.1 to 6.6 Hours ([1]; Type II Collagen 14.67 ug/ml): −44%
Average Percent Inhibition from 1.1 to 6.6 Hours ([1]; Type II Collagen 44.00 ug/ml): −53%
Average Percent Inhibition [1, 3]: 16%
Average Percent Inhibition [1, 4]: −4%
Average Percent Inhibition [1, 5]: −11%
Average Percent Inhibition [1, 6]: −15%
Average Percent Inhibition [1, 7]: −13%
Average Percent Inhibition [1, 8]: −12%
Average Percent Inhibition [1, 9]: −11%
Average Percent Inhibition [1, 10]: 8%
Average Percent Inhibition [1, 11]: −31%
Average Percent Inhibition [1, 12]: −28%
Average Percent Inhibition [1, 13]: −38%
Average Percent Inhibition [1, 14]: −31%
Average Percent Inhibition [1, 15]: −25%
Average Percent Inhibition [1, 16]: −21%
Average Percent Inhibition [1, 17]: 6%
Average Percent Inhibition [1, 18]: −48%
Average Percent Inhibition [1, 19]: −44%
Average Percent Inhibition [1, 20]: −59%
Average Percent Inhibition [1, 21]: −50%
Average Percent Inhibition [1, 22]: −41%
Average Percent Inhibition [1, 23]: −34%
Average Percent Inhibition [1, 24]: 2%
Average Percent Inhibition [1, 25]: −55%
Average Percent Inhibition [1, 26]: −53%
Average Percent Inhibition [1, 27]: −71%
Average Percent Inhibition [1, 28]: −60%
Average Percent Inhibition [1, 29]: −49%
Average Percent Inhibition [1, 30]: −41%
Average Percent Inhibition [1, 31]: 6%
Average Percent Inhibition [1, 32]: −9%
Average Percent Inhibition [1, 33]: −8%
Average Percent Inhibition [1, 34]: −10%
Average Percent Inhibition [1, 35]: −8%
Average Percent Inhibition [1, 36]: −7%
Average Percent Inhibition [1, 37]: −6%
Average Percent Inhibition [1, 38]: 14%
Average Percent Inhibition [1, 39]: −11%
Average Percent Inhibition [1, 40]: −11%
Average Percent Inhibition [1, 41]: −15%
Average Percent Inhibition [1, 42]: −12%
Average Percent Inhibition [1, 43]: −10%
Average Percent Inhibition [1, 44]: −10%
inhibition of collagenase 3 by type II collagen ([1]; FlSub3): not observed
increase in specificity of collagenase 3 (factor) ([1]; highest concentration of collagen, FlSb3): 2.5
effect on collagenase 3 at the highest concentrations of type II collagen ([1]; highest concentrations, FlSub3): activation, rather than inhibition
Improvement In Selectivity (Gel-B v Col-3) [2]: 46 fold
Improvement In Selectivity (Gel-B v Col-3) ([2]; listed as collagen): approximately 80 fold
Average Percent Inhibition from 1.1 to 6.6 Hours ([2]; Type II Collagen 0.18 ug/ml): 9%
Average Percent Inhibition from 1.1 to 6.6 Hours ([2]; Type II Collagen 0.54 ug/ml): 9%
Average Percent Inhibition from 1.1 to 6.6 Hours ([2]; Type II Collagen 1.63 ug/ml): 12%
Average Percent Inhibition from 1.1 to 6.6 Hours ([2]; Type II Collagen 4.89 ug/ml): 38%
Average Percent Inhibition from 1.1 to 6.6 Hours ([2]; Type II Collagen 14.67 ug/ml): 65%
Average Percent Inhibition from 1.1 to 6.6 Hours ([2]; Type II Collagen 44.00 ug/ml): 84%
Average Percent Inhibition [2, 3]: −28%
Average Percent Inhibition [2, 4]: 14%
Average Percent Inhibition [2, 5]: 12%
Average Percent Inhibition [2, 6]: 19%
Average Percent Inhibition [2, 7]: 15%
Average Percent Inhibition [2, 8]: 11%
Average Percent Inhibition [2, 9]: 7%
Average Percent Inhibition [2, 10]: 35%
Average Percent Inhibition [2, 11]: 43%
Average Percent Inhibition [2, 12]: 38%
Average Percent Inhibition [2, 13]: 47%
Average Percent Inhibition [2, 14]: 41%
Average Percent Inhibition [2, 15]: 35%
Average Percent Inhibition [2, 16]: 30%
Average Percent Inhibition [2, 17]: 57%
Average Percent Inhibition [2, 18]: 67%
Average Percent Inhibition [2, 19]: 65%
Average Percent Inhibition [2, 20]: 72%
Average Percent Inhibition [2, 21]: 69%
Average Percent Inhibition [2, 22]: 64%
Average Percent Inhibition [2, 23]: 59%
Average Percent Inhibition [2, 24]: 41%
Average Percent Inhibition [2, 25]: 82%
Average Percent Inhibition [2, 26]: 84%
Average Percent Inhibition [2, 27]: 87%
Average Percent Inhibition [2, 28]: 87%
Average Percent Inhibition [2, 29]: 85%
Average Percent Inhibition [2, 30]: 83%
Average Percent Inhibition [2, 31]: 3%
Average Percent Inhibition [2, 32]: 12%
Average Percent Inhibition [2, 33]: 9%
Average Percent Inhibition [2, 34]: 11%
Average Percent Inhibition [2, 35]: 9%
Average Percent Inhibition [2, 36]: 7%
Average Percent Inhibition [2, 37]: 5%
Average Percent Inhibition [2, 38]: 3%
Average Percent Inhibition [2, 39]: 10%
Average Percent Inhibition [2, 40]: 9%
Average Percent Inhibition [2, 41]: 12%
Average Percent Inhibition [2, 42]: 10%
Average Percent Inhibition [2, 43]: 8%
Average Percent Inhibition [2, 44]: 6%
inhibition of gelatinase B by type II collagen ([2]; highest concentration (44 ug/ml), six hour time course, FlSub3): Almost complete inhibition

Source: patent publication US7432061B2, “Assays for measuring matrix metalloproteinase activities” (BioZyme, Inc., priority 2002, dated 2008)
